Reference: the supplement of paper PMC10065799, “High-throughput profiling of sequence recognition by tyrosine kinases and SH2 domains using bacterial peptide display” (eLife, 2023)

Biological target: Fyn (UniProt P06241)
Assay: phosphorylation enrichment, bacterial display (enrichment ratio); higher = better substrate or ligand; peptides without Tyr show the background
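Further: 11-residue human phosphosite peptides and single-mutation variants displayed on the E. coli surface, counted by deep sequencing, each peptide's frequency after selection divided by its frequency in the unselected input library; frequency after pTyr selection over input frequency; kinase dosed for 20-30% of maximal phosphorylation in three min.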

Sequence of Fyn (P06241 whole entry, looked up): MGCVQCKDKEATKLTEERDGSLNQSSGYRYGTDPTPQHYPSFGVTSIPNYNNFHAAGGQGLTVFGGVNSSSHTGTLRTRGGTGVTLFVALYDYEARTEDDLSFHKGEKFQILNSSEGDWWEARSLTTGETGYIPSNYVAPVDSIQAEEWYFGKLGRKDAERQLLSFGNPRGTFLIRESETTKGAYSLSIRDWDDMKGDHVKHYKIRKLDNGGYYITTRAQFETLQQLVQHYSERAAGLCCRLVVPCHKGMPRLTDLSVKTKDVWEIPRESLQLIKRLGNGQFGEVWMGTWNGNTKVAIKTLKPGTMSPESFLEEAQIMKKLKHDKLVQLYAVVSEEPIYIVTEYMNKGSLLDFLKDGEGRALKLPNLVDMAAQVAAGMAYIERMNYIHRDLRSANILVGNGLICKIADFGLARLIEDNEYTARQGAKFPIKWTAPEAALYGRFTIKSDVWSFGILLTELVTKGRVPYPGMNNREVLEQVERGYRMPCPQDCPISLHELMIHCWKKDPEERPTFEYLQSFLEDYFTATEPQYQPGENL

| Sequence | phosphorylation enrichment |
| --- | --- |
| SSSGAYGGGFG [KRT19_Y61_YF] | 0.434 |
| DFSLKYPTDIP [APC_Y1183_A1184P_YF] | 0.452 |
| VLVSQYEKLDA [AMZ2_Y26_N30D] | 0.489 |
| DIDKIYIRTGI [PIK3CA_Y355_V356I] | 0.479 |
| AKIDGYIISYR | 0.37 |
| RLLRGYDQLAF [HLA-C_Y137_S140L_YF] | 0.435 |
| AKLVQYFMEHH [PTPN11_Y80_E76K_YF] | 0.374 |
| APRKVYDTRDD [ZFPL1_Y215] | 0.408 |
| FGGTVCHSPVS [PRC1_Y511_Y511C] | 0.447 |
| ENKGVYVLMSG [IVD_Y277] | 0.561 |
| KPIETYFSKNY [PLP1_Y50_L46P] | 0.448 |
| LGGAMYFLEAD [PKHD1_Y452_E457D_YF] | 0.717 |
| FGSVDCWEKFF [EEF1AKNMT_Y16_Y16C] | 0.436 |
| RQQQDYWLIDV [ANPEP_Y600] | 0.847 |
| LGRKLYSIAAP [ABHD12_Y345] | 0.737 |
| QWQQLYDTLNA [EIF3M_Y351] | 5.55 |
| RENGPYFTSFP [GDAP2_Y487_YF] | 0.479 |

| Sequence | phosphorylation enrichment |
| --- | --- |
| IIQRAYRRHLL [SCN1A_Y1926] | 0.509 |
| TNFSLYLRSLE [MTM1_Y71_R69S_YF] | 0.368 |
| PKKKQYTSIHH [APP_Y728_L723P] | 0.757 |
| LGPSDYFGEIA [PRKAR1A_Y323] | 0.705 |
| RTTKTYFPHFD [HBA1_Y43_P38R] | 0.418 |
| EAVSIYQFFGQ [CBLC_Y402_H405Y_YF] | 7.8 |
| YAGRDYSLDEF [MYOF_Y1705_G1701A] | 0.595 |
| AQESNYRLLRQ [SLC20A2_Y377_R382Q] | 0.391 |
| GLDGSYLPRDS [SH2D1A_Y29_L31P] | 0.356 |
| DFPMGYPSFLA [TBCK_Y153_I151M_YF] | 0.424 |
| FQGGTYSKACT [FGG_Y380_S384C_YF] | 0.35 |
| YPPDGYSRHYE [CTNND1_Y213] | 0.348 |
| QLFGPYLRIHA [BSCL2_Y213_A212P_YF] | 0.588 |
| LRYEVYGGENE [STOX1_Y610] | 0.615 |
| FVSIVCNDSGE [TSC2_Y1650_Y1650C] | 0.476 |
| PGIRMYRVQYN [LRFN1_Y454_Q455R] | 0.486 |

System: AncSZ
Assay: as above

| Sequence | phosphorylation enrichment |
| --- | --- |
| SSSGAYGGGFG [KRT19_Y61_YF] | 0.553 |
| DFSLKYPTDIP [APC_Y1183_A1184P_YF] | 1.03 |
| VLVSQYEKLDA [AMZ2_Y26_N30D] | 0.808 |
| DIDKIYIRTGI [PIK3CA_Y355_V356I] | 1.25 |
| AKIDGYIISYR | 1.15 |
| RLLRGYDQLAF [HLA-C_Y137_S140L_YF] | 0.898 |
| AKLVQYFMEHH [PTPN11_Y80_E76K_YF] | 0.729 |
| APRKVYDTRDD [ZFPL1_Y215] | 0.641 |
| FGGTVCHSPVS [PRC1_Y511_Y511C] | 0.688 |
| ENKGVYVLMSG [IVD_Y277] | 1.2 |
| KPIETYFSKNY [PLP1_Y50_L46P] | 0.595 |
| LGGAMYFLEAD [PKHD1_Y452_E457D_YF] | 1.01 |
| FGSVDCWEKFF [EEF1AKNMT_Y16_Y16C] | 1.14 |
| RQQQDYWLIDV [ANPEP_Y600] | 3.3 |
| LGRKLYSIAAP [ABHD12_Y345] | 1.3 |
| QWQQLYDTLNA [EIF3M_Y351] | 1.63 |
| RENGPYFTSFP [GDAP2_Y487_YF] | 1.03 |

| Sequence | phosphorylation enrichment |
| --- | --- |
| IIQRAYRRHLL [SCN1A_Y1926] | 0.845 |
| TNFSLYLRSLE [MTM1_Y71_R69S_YF] | 1.2 |
| PKKKQYTSIHH [APP_Y728_L723P] | 0.646 |
| LGPSDYFGEIA [PRKAR1A_Y323] | 1.76 |
| RTTKTYFPHFD [HBA1_Y43_P38R] | 0.967 |
| EAVSIYQFFGQ [CBLC_Y402_H405Y_YF] | 1.74 |
| YAGRDYSLDEF [MYOF_Y1705_G1701A] | 1.06 |
| AQESNYRLLRQ [SLC20A2_Y377_R382Q] | 0.616 |
| GLDGSYLPRDS [SH2D1A_Y29_L31P] | 0.663 |
| DFPMGYPSFLA [TBCK_Y153_I151M_YF] | 0.64 |
| FQGGTYSKACT [FGG_Y380_S384C_YF] | 0.528 |
| YPPDGYSRHYE [CTNND1_Y213] | 0.561 |
| QLFGPYLRIHA [BSCL2_Y213_A212P_YF] | 1.25 |
| LRYEVYGGENE [STOX1_Y610] | 1.33 |
| FVSIVCNDSGE [TSC2_Y1650_Y1650C] | 1.12 |
| PGIRMYRVQYN [LRFN1_Y454_Q455R] | 0.759 |

System: c-Abl (mouse)
Assay: as above

| Sequence | phosphorylation enrichment |
| --- | --- |
| SSSGAYGGGFG [KRT19_Y61_YF] | 0.539 |
| DFSLKYPTDIP [APC_Y1183_A1184P_YF] | 0.702 |
| VLVSQYEKLDA [AMZ2_Y26_N30D] | 0.586 |
| DIDKIYIRTGI [PIK3CA_Y355_V356I] | 0.576 |
| AKIDGYIISYR | 0.755 |
| RLLRGYDQLAF [HLA-C_Y137_S140L_YF] | 0.926 |
| AKLVQYFMEHH [PTPN11_Y80_E76K_YF] | 0.546 |
| APRKVYDTRDD [ZFPL1_Y215] | 0.485 |
| FGGTVCHSPVS [PRC1_Y511_Y511C] | 0.548 |
| ENKGVYVLMSG [IVD_Y277] | 0.739 |
| KPIETYFSKNY [PLP1_Y50_L46P] | 0.473 |
| LGGAMYFLEAD [PKHD1_Y452_E457D_YF] | 0.682 |
| FGSVDCWEKFF [EEF1AKNMT_Y16_Y16C] | 0.801 |
| RQQQDYWLIDV [ANPEP_Y600] | 1.32 |
| LGRKLYSIAAP [ABHD12_Y345] | 0.892 |
| QWQQLYDTLNA [EIF3M_Y351] | 0.546 |
| RENGPYFTSFP [GDAP2_Y487_YF] | 1.19 |

| Sequence | phosphorylation enrichment |
| --- | --- |
| IIQRAYRRHLL [SCN1A_Y1926] | 0.552 |
| TNFSLYLRSLE [MTM1_Y71_R69S_YF] | 0.908 |
| PKKKQYTSIHH [APP_Y728_L723P] | 0.617 |
| LGPSDYFGEIA [PRKAR1A_Y323] | 0.746 |
| RTTKTYFPHFD [HBA1_Y43_P38R] | 0.884 |
| EAVSIYQFFGQ [CBLC_Y402_H405Y_YF] | 6.44 |
| YAGRDYSLDEF [MYOF_Y1705_G1701A] | 0.928 |
| AQESNYRLLRQ [SLC20A2_Y377_R382Q] | 0.634 |
| GLDGSYLPRDS [SH2D1A_Y29_L31P] | 0.513 |
| DFPMGYPSFLA [TBCK_Y153_I151M_YF] | 0.592 |
| FQGGTYSKACT [FGG_Y380_S384C_YF] | 0.633 |
| YPPDGYSRHYE [CTNND1_Y213] | 0.355 |
| QLFGPYLRIHA [BSCL2_Y213_A212P_YF] | 0.628 |
| LRYEVYGGENE [STOX1_Y610] | 0.775 |
| FVSIVCNDSGE [TSC2_Y1650_Y1650C] | 0.767 |
| PGIRMYRVQYN [LRFN1_Y454_Q455R] | 0.675 |

Biological target: MERTK (UniProt Q12866)
Sequence (Q12866 whole entry, looked up): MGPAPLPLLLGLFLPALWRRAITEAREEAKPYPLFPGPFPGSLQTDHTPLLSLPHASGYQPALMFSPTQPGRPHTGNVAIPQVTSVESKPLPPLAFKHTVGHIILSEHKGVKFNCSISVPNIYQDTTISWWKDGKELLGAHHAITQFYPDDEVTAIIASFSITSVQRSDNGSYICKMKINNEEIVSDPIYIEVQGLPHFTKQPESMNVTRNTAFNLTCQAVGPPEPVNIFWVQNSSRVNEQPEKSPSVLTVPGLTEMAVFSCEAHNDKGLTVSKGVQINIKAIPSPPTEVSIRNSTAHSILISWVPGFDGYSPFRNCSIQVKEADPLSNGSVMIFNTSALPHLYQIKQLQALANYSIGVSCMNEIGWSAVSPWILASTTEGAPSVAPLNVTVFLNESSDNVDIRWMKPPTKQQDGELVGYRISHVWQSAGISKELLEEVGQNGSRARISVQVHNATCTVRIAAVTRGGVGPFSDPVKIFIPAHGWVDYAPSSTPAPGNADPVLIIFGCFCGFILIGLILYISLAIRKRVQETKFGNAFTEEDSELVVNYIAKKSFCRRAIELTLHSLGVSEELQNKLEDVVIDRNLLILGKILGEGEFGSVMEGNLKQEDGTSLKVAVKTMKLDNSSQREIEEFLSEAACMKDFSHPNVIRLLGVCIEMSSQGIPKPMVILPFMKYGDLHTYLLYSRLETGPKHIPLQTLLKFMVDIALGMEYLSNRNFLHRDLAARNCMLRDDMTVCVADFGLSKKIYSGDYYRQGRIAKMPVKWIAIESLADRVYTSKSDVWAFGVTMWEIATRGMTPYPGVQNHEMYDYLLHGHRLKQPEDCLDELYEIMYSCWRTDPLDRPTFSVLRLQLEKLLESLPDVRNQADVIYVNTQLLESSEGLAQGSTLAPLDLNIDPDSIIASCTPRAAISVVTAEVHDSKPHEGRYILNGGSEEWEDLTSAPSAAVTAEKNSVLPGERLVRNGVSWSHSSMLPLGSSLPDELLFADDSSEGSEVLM
Assay: as above

| Sequence | phosphorylation enrichment |
| --- | --- |
| SSSGAYGGGFG [KRT19_Y61_YF] | 0.396 |
| DFSLKYPTDIP [APC_Y1183_A1184P_YF] | 0.52 |
| VLVSQYEKLDA [AMZ2_Y26_N30D] | 0.462 |
| DIDKIYIRTGI [PIK3CA_Y355_V356I] | 0.342 |
| AKIDGYIISYR | 0.46 |
| RLLRGYDQLAF [HLA-C_Y137_S140L_YF] | 0.495 |
| AKLVQYFMEHH [PTPN11_Y80_E76K_YF] | 0.362 |
| APRKVYDTRDD [ZFPL1_Y215] | 0.372 |
| FGGTVCHSPVS [PRC1_Y511_Y511C] | 0.456 |
| ENKGVYVLMSG [IVD_Y277] | 1.13 |
| KPIETYFSKNY [PLP1_Y50_L46P] | 0.466 |
| LGGAMYFLEAD [PKHD1_Y452_E457D_YF] | 0.536 |
| FGSVDCWEKFF [EEF1AKNMT_Y16_Y16C] | 0.459 |
| RQQQDYWLIDV [ANPEP_Y600] | 4.02 |
| LGRKLYSIAAP [ABHD12_Y345] | 1.04 |
| QWQQLYDTLNA [EIF3M_Y351] | 6.06 |
| RENGPYFTSFP [GDAP2_Y487_YF] | 0.568 |

| Sequence | phosphorylation enrichment |
| --- | --- |
| IIQRAYRRHLL [SCN1A_Y1926] | 0.608 |
| TNFSLYLRSLE [MTM1_Y71_R69S_YF] | 0.42 |
| PKKKQYTSIHH [APP_Y728_L723P] | 0.656 |
| LGPSDYFGEIA [PRKAR1A_Y323] | 0.605 |
| RTTKTYFPHFD [HBA1_Y43_P38R] | 0.87 |
| EAVSIYQFFGQ [CBLC_Y402_H405Y_YF] | 9.29 |
| YAGRDYSLDEF [MYOF_Y1705_G1701A] | 0.52 |
| AQESNYRLLRQ [SLC20A2_Y377_R382Q] | 0.488 |
| GLDGSYLPRDS [SH2D1A_Y29_L31P] | 0.416 |
| DFPMGYPSFLA [TBCK_Y153_I151M_YF] | 0.429 |
| FQGGTYSKACT [FGG_Y380_S384C_YF] | 0.446 |
| YPPDGYSRHYE [CTNND1_Y213] | 0.395 |
| QLFGPYLRIHA [BSCL2_Y213_A212P_YF] | 0.485 |
| LRYEVYGGENE [STOX1_Y610] | 0.499 |
| FVSIVCNDSGE [TSC2_Y1650_Y1650C] | 0.464 |
| PGIRMYRVQYN [LRFN1_Y454_Q455R] | 0.527 |
